Measurements published in US20220025010A1 (ANTAG THERAPEUTICS, published 2022).
*1 amine or outer side, *2 acyl side, *3 side chain or, on linkers, in order; H or OH if unused. Where no end group is shown, it is not given here. Side-chain parts run from the residue outwards. The star is where a group is joined. C18 diacid = O=C(O)CCCCCCCCCCCCCCCCC(=O)*; C16 diacid = O=C(O)CCCCCCCCCCCCCCC(=O)*; γGlu = O=C(O)[C@H](CCC(=O)[*:2])N[*:1]; AEEA = NCCOCCOCC(=O)O

T1: human GIP receptor (human, UniProt P48546 22-466)
T1 sequence (looked up): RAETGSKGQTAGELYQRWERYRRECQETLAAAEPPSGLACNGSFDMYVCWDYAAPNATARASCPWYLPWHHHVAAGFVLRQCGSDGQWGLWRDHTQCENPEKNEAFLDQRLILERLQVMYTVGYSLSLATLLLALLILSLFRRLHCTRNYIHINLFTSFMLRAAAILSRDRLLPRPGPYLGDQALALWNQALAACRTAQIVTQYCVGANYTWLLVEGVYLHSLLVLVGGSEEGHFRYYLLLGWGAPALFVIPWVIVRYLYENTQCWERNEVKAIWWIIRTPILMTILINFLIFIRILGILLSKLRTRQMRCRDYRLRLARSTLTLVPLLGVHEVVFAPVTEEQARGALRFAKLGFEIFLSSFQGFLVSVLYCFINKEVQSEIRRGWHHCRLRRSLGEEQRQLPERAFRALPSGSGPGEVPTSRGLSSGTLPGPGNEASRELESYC

B1: AT516 (peptide)
peptide: SGTFISDYSIAMDRIK([AEEA-AEEA-γGlu-C16 diacid])QQDFVNWLLAQR-NH2
modifications: N-terminus assumed
SMILES: CC[C@H](C)[C@H](NC(=O)[C@H](CO)NC(=O)[C@H](Cc1ccc(O)cc1)NC(=O)[C@H](CC(=O)O)NC(=O)[C@H](CO)NC(=O)[C@@H](NC(=O)[C@H](Cc1ccccc1)NC(=O)[C@@H](NC(=O)CNC(=O)[C@@H](N)CO)[C@@H](C)O)[C@@H](C)CC)C(=O)N[C@@H](C)C(=O)N[C@@H](CCSC)C(=O)N[C@@H](CC(=O)O)C(=O)N[C@@H](CCCNC(=N)N)C(=O)N[C@H](C(=O)N[C@@H](CCCCNC(=O)COCCOCCNC(=O)COCCOCCNC(=O)CC[C@H](NC(=O)CCCCCCCCCCCCCCC(=O)O)C(=O)O)C(=O)N[C@@H](CCC(N)=O)C(=O)N[C@@H](CCC(N)=O)C(=O)N[C@@H](CC(=O)O)C(=O)N[C@@H](Cc1ccccc1)C(=O)N[C@H](C(=O)N[C@@H](CC(N)=O)C(=O)N[C@@H](Cc1c[nH]c2ccccc12)C(=O)N[C@@H](CC(C)C)C(=O)N[C@@H](CC(C)C)C(=O)N[C@@H](C)C(=O)N[C@@H](CCC(N)=O)C(=O)N[C@@H](CCCNC(=N)N)C(N)=O)C(C)C)[C@@H](C)CC
B2: AT518 (peptide)
peptide: PGTFISDYSIAMDRIK([AEEA-AEEA-γGlu-C16 diacid])QQDFVNWLLAQR-NH2
modifications: N-terminus assumed
SMILES: CC[C@H](C)[C@H](NC(=O)[C@H](CO)NC(=O)[C@H](Cc1ccc(O)cc1)NC(=O)[C@H](CC(=O)O)NC(=O)[C@H](CO)NC(=O)[C@@H](NC(=O)[C@H](Cc1ccccc1)NC(=O)[C@@H](NC(=O)CNC(=O)[C@@H]1CCCN1)[C@@H](C)O)[C@@H](C)CC)C(=O)N[C@@H](C)C(=O)N[C@@H](CCSC)C(=O)N[C@@H](CC(=O)O)C(=O)N[C@@H](CCCNC(=N)N)C(=O)N[C@H](C(=O)N[C@@H](CCCCNC(=O)COCCOCCNC(=O)COCCOCCNC(=O)CC[C@H](NC(=O)CCCCCCCCCCCCCCC(=O)O)C(=O)O)C(=O)N[C@@H](CCC(N)=O)C(=O)N[C@@H](CCC(N)=O)C(=O)N[C@@H](CC(=O)O)C(=O)N[C@@H](Cc1ccccc1)C(=O)N[C@H](C(=O)N[C@@H](CC(N)=O)C(=O)N[C@@H](Cc1c[nH]c2ccccc12)C(=O)N[C@@H](CC(C)C)C(=O)N[C@@H](CC(C)C)C(=O)N[C@@H](C)C(=O)N[C@@H](CCC(N)=O)C(=O)N[C@@H](CCCNC(=N)N)C(N)=O)C(C)C)[C@@H](C)CC
B3: AT265 (peptide)
peptide: SGTFISDYSIAMDRIKQQDFVNWLLAQR
HELM: PEPTIDE1{S.G.T.F.I.S.D.Y.S.I.A.M.D.R.I.K.Q.Q.D.F.V.N.W.L.L.A.Q.R}|PEPTIDE2{[O=C(O)CCCCCCCCCCCCCCC(=O)[*:2]].[gGlu]}$PEPTIDE1,PEPTIDE2,16:R3-2:R2$$$V2.0; N-terminus assumed
SMILES: CC[C@H](C)[C@H](NC(=O)[C@H](CO)NC(=O)[C@H](Cc1ccc(O)cc1)NC(=O)[C@H](CC(=O)O)NC(=O)[C@H](CO)NC(=O)[C@@H](NC(=O)[C@H](Cc1ccccc1)NC(=O)[C@@H](NC(=O)CNC(=O)[C@@H](N)CO)[C@@H](C)O)[C@@H](C)CC)C(=O)N[C@@H](C)C(=O)N[C@@H](CCSC)C(=O)N[C@@H](CC(=O)O)C(=O)N[C@@H](CCCNC(=N)N)C(=O)N[C@H](C(=O)N[C@@H](CCCCNC(=O)CC[C@H](NC(=O)CCCCCCCCCCCCCCC(=O)O)C(=O)O)C(=O)N[C@@H](CCC(N)=O)C(=O)N[C@@H](CCC(N)=O)C(=O)N[C@@H](CC(=O)O)C(=O)N[C@@H](Cc1ccccc1)C(=O)N[C@H](C(=O)N[C@@H](CC(N)=O)C(=O)N[C@@H](Cc1c[nH]c2ccccc12)C(=O)N[C@@H](CC(C)C)C(=O)N[C@@H](CC(C)C)C(=O)N[C@@H](C)C(=O)N[C@@H](CCC(N)=O)C(=O)N[C@@H](CCCNC(=N)N)C(=O)O)C(C)C)[C@@H](C)CC
B4: AT233 (peptide)
peptide: TFISDYSIALDRIKQQDFVNWLLAQR
HELM: PEPTIDE1{T.F.I.S.D.Y.S.I.A.L.D.R.I.K.Q.Q.D.F.V.N.W.L.L.A.Q.R.[am]}|PEPTIDE2{[O=C(O)CCCCCCCCCCCCCCC(=O)[*:2]].[gGlu]}$PEPTIDE1,PEPTIDE2,14:R3-2:R2$$$V2.0; N-terminus assumed
SMILES: CC[C@H](C)[C@H](NC(=O)[C@H](CO)NC(=O)[C@H](Cc1ccc(O)cc1)NC(=O)[C@H](CC(=O)O)NC(=O)[C@H](CO)NC(=O)[C@@H](NC(=O)[C@H](Cc1ccccc1)NC(=O)[C@@H](N)[C@@H](C)O)[C@@H](C)CC)C(=O)N[C@@H](C)C(=O)N[C@@H](CC(C)C)C(=O)N[C@@H](CC(=O)O)C(=O)N[C@@H](CCCNC(=N)N)C(=O)N[C@H](C(=O)N[C@@H](CCCCNC(=O)CC[C@H](NC(=O)CCCCCCCCCCCCCCC(=O)O)C(=O)O)C(=O)N[C@@H](CCC(N)=O)C(=O)N[C@@H](CCC(N)=O)C(=O)N[C@@H](CC(=O)O)C(=O)N[C@@H](Cc1ccccc1)C(=O)N[C@H](C(=O)N[C@@H](CC(N)=O)C(=O)N[C@@H](Cc1c[nH]c2ccccc12)C(=O)N[C@@H](CC(C)C)C(=O)N[C@@H](CC(C)C)C(=O)N[C@@H](C)C(=O)N[C@@H](CCC(N)=O)C(=O)N[C@@H](CCCNC(=N)N)C(N)=O)C(C)C)[C@@H](C)CC
B5: AT234 (peptide)
peptide: TFISDYSIALDRIKQQDFVNWLLAQR-NH2
modifications: not fully specified (residue 14); printed as TFISDYSIALDRIKQQDFVNWLLAQR-(AEEAc +γ-Glu)-C16-diacid/K18

target: T1, human GIP receptor; experiment: cell-based or functional assay

Binder	CisBio cAMP agonism % Efficacy [%]	CisBio cAMP antagonism % inhib [%]	CisBio cAMP antagonism IC50 [nM]	CisBio cAMP antagonism pIC50	DiscoveRx cAMP antagonism % inhib [%]	DiscoveRx cAMP antagonism IC50 [nM]	DiscoveRx cAMP antagonism log IC50 [log M]	DiscoveRx cAMP agonism Emax
B1	0	88	27.1	7.6	100	31	-7.5	–
B2	0	71	85.8	7.1	100	346	-6.5	5
EGTFISDYSIAMDRIK([AEEA-γGlu-C16 diacid])QQDFVNWLLAQR-NH2 (not fully specified (residue 1)) [AT373]	0	91	12.6	7.9	94	10	-8	–
B3	8	73	58.4	7.2	–	33	-7.5	10
EGTFISDYSIAMDRIK([AEEA-AEEA-γGlu-C16 diacid])QQDFVNWLLAQR-NH2 (not fully specified (residue 1)) [AT374]	0	86	17.1	7.8	100	12	-7.9	–
EGTFISDYSIAMDRIK([AEEA-AEEA-AEEA-γGlu-C16 diacid])QQDFVNWLLAQR-NH2 (not fully specified (residue 1)) [AT375]	6	83	23.3	7.6	100	22	-7.7	–
EGTFISDYSIAMDRIK([AEEA-γGlu-C18 diacid])QQDFVNWLLAQR-NH2 (not fully specified (residue 1)) [AT376]	0	87	6.81	8.2	90	19	-7.7	–
EGTFISDYSIAMDRIK([AEEA-AEEA-γGlu-C18 diacid])QQDFVNWLLAQR-NH2 (not fully specified (residue 1)) [AT377]	0	90	18.5	7.7	100	19	-7.7	–
EGTFISDYSIAMDRIK([AEEA-AEEA-AEEA-γGlu-C18 diacid])QQDFVNWLLAQR-NH2 (not fully specified (residue 1)) [AT378]	0	90	11.7	7.9	92	16	-7.8	–
B4	0	70	34.2	7.5	–	32	-7.5	28
B5	0	66	39.8	7.4	–	16	-7.8	26
